According to US12274759B2, “Affibody proteins specific for B7-H3 (CD276)” (THE BOARD OF TRUSTEES OF THE LELAND STANFORD JUNIOR …, priority 2018, dated 2025):

Target: T1, recombinant soluble human B7-H3 ectodomain protein (Homo sapiens, UniProt Q5ZPR3)
T1 construct: incubated with 3 μM of recombinant soluble human B7-H3 ectodomain protein
T1 sequence (Q5ZPR3 29-466 limits assumed): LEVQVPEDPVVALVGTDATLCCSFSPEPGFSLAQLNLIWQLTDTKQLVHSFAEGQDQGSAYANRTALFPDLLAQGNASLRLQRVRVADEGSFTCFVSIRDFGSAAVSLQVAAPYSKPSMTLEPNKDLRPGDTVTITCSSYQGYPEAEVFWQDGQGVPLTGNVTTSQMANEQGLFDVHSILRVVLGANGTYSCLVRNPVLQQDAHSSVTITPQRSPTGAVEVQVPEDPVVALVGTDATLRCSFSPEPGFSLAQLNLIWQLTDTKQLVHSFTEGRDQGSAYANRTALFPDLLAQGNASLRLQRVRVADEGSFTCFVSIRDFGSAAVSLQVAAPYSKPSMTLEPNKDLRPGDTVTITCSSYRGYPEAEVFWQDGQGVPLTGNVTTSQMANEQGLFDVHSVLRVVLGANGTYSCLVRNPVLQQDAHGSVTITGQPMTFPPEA
Test: Streptavidin bead binding to recombinant soluble human B7-H3 ectodomain by flow cytometry
Conditions: ligand immobilized to streptavidin magnetic beads; 3 μM recombinant soluble human B7-H3 ectodomain
Text: FIG. 9. Production and validation of ABYB7-H3.(A) Left panel: Commassie Blue staining of SDS-PAGE showing high purity and expected size (7,490 Da) of finalized ABYB7-H3 produced in E. Coli. Right panel: Mass spectrometric analysis of ABYB7-H3 showing a mass-to-charge peak (m/z=7,546) corresponding to ABY molecular weight. A doubly charged peak (m/z=3763) is also present. Amino acid sequence of ABYB7-H3 (SEQ ID NO:28) is shown on the bottom. (B) Flow cytometry of biotin-ABYB7-H3 conjugated streptavidin-microbeads complex showing binding to soluble recombinant B7-H3 (3 μM) as detected by APC conjugated anti-B7-H3 antibody. Unconjugated beads (negative control) and anti B7-H3 antibody (AB) conjugated beads (positive control) were also tested for binding to soluble B7-H3 antigen.
Production of ABYB7-H3. Development of a B7-H3-binding ligand from an ABY yeast display library is described in Example 1. […] ABYB7-H3 ligand was recombinantly expressed in E. coli, purified, and functionalized with 1:1 molar ratio of biotin. […] In order to confirm binding specificity of recombinantly produced ABYB7-H3 to its target, biotinylated-ABY was immobilized to streptavidin- magnetic beads and incubated with 3 μM of recombinant soluble human B7-H3 ectodomain protein.

B1: anti- B7-H3 antibody: biotinylated anti-B7-H3 antibody conjugated to beads as positive control (protein)
VHH: QVQLVESGGGLVQPGGSLRLSCAASGFTFSSYWMYWVRQTPGKGLEWVSTINRDGSATWYADSVKGRFTISRDNAKNTGYLQMNSLKPDDTAVYYCVSDPDNYSSDEMVPYWGQGTQVTVSS
binding to soluble B7-H3: 81%
